Experiment: soluble on expression in E. coli; label from the status in PepcDB or PDB records
For “MYLMSSIPPLIDLLPHDTPLALVDELIEVNDLSVHCQVTIGENNVFFDHETKTVPAWVGIEFMAQSIAGWSGYHAWKKGNKSPIGFLLGSRKYQAECSEFQQGDTLDIFAEQVLENNGMAVFSCYIEHKGQQLASSQLNVFVPTEEKLEELLTPKQLEHHHHHH”, the “soluble on expression in E. coli” value was “soluble”. For “MSLAIRVVCISDTHDLKVDIPRGDILIHAGDLTDGGTVSDIQKQLDWLKEQPHPIKVVVAGNHDSWFDQKSRPEEDARSGAKPDMDGLIYLESGLTVQKVKGRTVNIFGVPDIPEIGPKEFAFQYATDNHPWLSKVPPQTDILVTHCPPKHHLDLGLGDSNLLREVWRVKPRLHVFGHVHCAYGKESVFFDNFQQTYERIMSRPRRGPILDFIPNEAWLDYLRFLAQGIHAVAWKWIMSGPGSNNGSLMVNAAQMKGNSGKVKSRAVVVEIEGHHHHHH”, the “soluble on expression in E. coli” value was “soluble”. For “MQVSLNPEWLARNNDEHKIRRNDHRSPFQRDRARILHSAAFRRLQAKTQVHGTSLNDFHRTRLTHSLEAAQIGTGIVAQIKLKQPEFRELLPSDSLIDSLCLAHDIGHPPYGHGGEIALNYMMRDHGGFEGNAQTFRIVTSLEPYTEHHGMNLSRRTLLGLLKYPALLSATRAAIPPPAVAHQRQLKAKDWSPAKGIYDCDLASLDWVLEPLCESDRELLGQMRAEPSSPKEHRKTRFKSLDCSIMELADDIAYGVHDLEDAIVLGMVTRAQWQEAAAAQLAECGDPWFEEHIAELSEMLFSGKHYVRKDAIGGIVNALLTSISVKPVEAPFHNELLAFNAYIEPHMGNALEVLKHFVSQYVIQIPQVQRFEYKGQQLIMDLFEALSADPERLLPQATGEKWRKAQEQDEGMRVICDYIAAMTDAYAQRLHQQLFSAQSHY”, the “soluble on expression in E. coli” value was “not soluble”. With “MKEYRIDDLAREARVSVRNVRVYQDRGLLPPPRKQGRTGWYNESHLARLHLIGRMLDRGYTFATISELLTAAHYGLQVKDVLETDDPGSRWKKRRRAARLTIAELKRMFGAQTTEANIAKGTELGVLVPAGDDYSVNDPRLVEAAQVLVDAGIPLEAVLEQTAAVRRDLSDVAARFVAVVADRYLAAEGEPLELDEAKVSEIARLVDQMRPLAHDAVQSLFEEAMEEQISKALERAARQLGETPGPATSTDTNRAS” the “soluble on expression in E. coli” value was “not soluble”. In the case of “MSKSDLRMKSNADKVIANLKKMTPIAEKEGAAMVNDSLAKIYQLIVPMTPIKSGDLRRGYRIIKARKLSSGRIVGALINNEKYFRYVNDGHRTKNGGFVKGRFMLQKSNKLANATYIPKRFKQMAIIIVKKG”, the “soluble on expression in E. coli” value is reported as “not soluble”. With “MAHHHHHHMSRLVMTAPPSLPPFLLLSGASSPPPPPISHTHTHTHTHTHTAMASLAHLSTPLPSEPSAAAPPPAASAPAGALHLERFLESVLKQNLDTVLSQRDELYATVAQCAQLRWLMDDMQALSRYHSFIEASTAAETAAAVPLSALSPVASGSPNASLPLMSKRAQADAYKPPQKNKVLVDLGNHFYTQGVVKDAGVLFMNMGCGVVLPMSLDEAREFLRKKEAVVRRMIMNKSKEALRIKYRIRLVTEAIARLHERHLGL” the “soluble on expression in E. coli” value was “not soluble”. With “MQLDTIHKITGTLILKSGLHIGAGDSEMRIGGTDSPVVKDPLTDQPYIPGSSLKGKIRSLLEWRHGLVVATGGAPYSFKHLAQDENNSAGRDVIKLFGGAPDKAEDQLVKNIGPTRLAFWDCPLNGDWKKEAADSRHLLTTEVKSENSINRIAGTAEHPRFIERVIAGARFDFTLTLKVLEGDDLLNTVLLGLRLLELDSLGGSGSRGYGKIKFAELKLDGTDLMEQFHAITPFNQTA” the “soluble on expression in E. coli” value was “not soluble”. With “MGSDKIHHHHHHMAYPNGKLSEEKVFKDPVHRYVHVRDKLIWDLIGTREFQRLRRIKQLGTTYLTFHGAEHSRFNHSLGVYEIVRRMVDDVFKGRPEWDDSERELCLAAALLHDLGHGPFSHSFEKVFHLDHEDFTRGIILGDTEVNQVLRKVSPGFPQDVAEVIAKTYKNKQVVSLISSQIDADRMDYLQRDAYYTGVSYGHFDMERILRVMRPREDQIVIKESGMHAVEDYIMSRYQMYWQVYFHPVTRSAEVILTKILHRAKQLHDEGYVFTHAPVHFYSIFEGKLTLEDYVKLDESIILYYFQAWEDEEDAILSDLCRRFINRQLFQYVEFNPNEEMSAYFELTSLFKEAGIDPSYYLVVDSSSDLPYDFYRPGEEEERLPIHLLTQNGQIKELSRQSAIVESISGKRRTDHKLYYPKDLICDGTKHPEAKMKIRQLLGLT” the “soluble on expression in E. coli” value was “not soluble”. In the case of “MRTFESVADLAAAAGEKVGQSDWVTITQEEVNLFADATGDHQWIHVDPERAAAGPFGTTIAHGFMTLALLPRLQHQMYTVKGVKLAINYGLNKVRFPAPVPVGSRVRATSSLVGVEDLGNGTVQATVSTTVEVEGSAKPACVAESIVRYVA”, the “soluble on expression in E. coli” value is reported as “soluble”. For “MGSDKIHHHHHHMKLDINICNNIKSIRTRLGMSQQDLANIAGVTRQTISGVESGQYAPSVAITLRLAKALGCQVENLFWLEDDLPEIEAVLAKPVPTGQQLRVSLAKVGGQWIAYPLVGKEAFRMEMIPADGRAESQTHTNKVQVRLLDDLDKLQNTVVIAGCTPVISFLARATERWHPQLRVHYHFANSMAALRSLNRGEVHIAGMHLYDPQTGEHNIPFAREALDGRSAVLITLGIWEEGLVVAPGNPMEIKSLSDLVELEATIINREPGSGSRMLLERKLKEEKVSANTIKGYEHIVHSHQDVALSIAAGIADAGVSTASVAAAFGLGFIPLHQARYDLVILKEYLEEAPVQQFLSILGHRLVQSQLEVLGGYDISDIGEVVATI”, the “soluble on expression in E. coli” value was “not soluble”. For “MSLRPYQEKARLFLNGEMSATLFVELGIATSCRKGLKKGFFNQDDFFAYQCDEWGLYGVFDGHGPGGHLVANFVQWHLPNIIHEYMITSEPRVALHRAFVEVNSMLTDASEAQKFDSASSGSTASVVLHRRQERKLFLAHVGDSRVVLARRNHQGRLVADCVTKDHKPDDPVERARIERHGGEVRRPTGHIPHRVFLKGKNYPGLAMSRSIGDSMGHCAGVTSEPDISDIDLLEDRDEVVIMCTDGVWEFMTPDEVVDIVSRYSIYQADEAAQELSREAWKRWLEQDGHSVDDITVQIIHLFPPAEEKHPEGHHHHHH”, the “soluble on expression in E. coli” value was “soluble”. With “GPGSMQRLFFRSTCARVRCADLRLKPPVSIPQVTFQTVAFSSSAAGAAVRSGAEGTNTTTKRRSGFGGGAGGGGPVKDRYPPPATDLGDPRRRLAVLVDASSVDPRVFRNTILPAALKVGTPVLIRIFSVQLSSEWEPLVAGSGGTRESATSTEPEWKTSGTANDGREEVSGAAGSRDSGAWCPPVEFFRVERFIPVPMQMEADANHIFDFRKQNQIEAVAFVCGEVDRGVFEGFLPNIAGNGFNQYVLDELGMAKEVLEDGRSEDGTPTVQK” the “soluble on expression in E. coli” value was “soluble”. For “MGSDKIHHHHHHCKDNDDATGDFDPNKPVVISEFSPKEGGLGTRMLLYGENFGSDISKIKVTIGGQDSKVVGAKGKSLYCVVPAKAYDGDIKLSILNDEGEEIANTEANEKFVYQKKMLVTTFLGTMYDGNTKYDLKDGPFDDCGGFGGAVWLSFDPKNHNHLYLVGEQHPTRLIDFEKEYVSTVYSGLSKVRTICWTHEADSMIITNDQNNNDRPNNYILTRESGFKVITELTKGQNCNGAETHPINGELYFNSWNAGQVFRYDFTTQETTPLFTIQDSGWEFHIQFHPSGNYAYIVVVNQHYILRSDYDWKTKRLTTPYIVCGQQGAKDWVDGVGKKARMHAPRQGTFVKNPAYKGSSDEYDFYFCDRENHCIRILTPQGRVTTFAGRGSNGTSGYNDGDLRQEARFNHPEGIVYDEERECFFIGDRENRRIRKIGYEE”, the “soluble on expression in E. coli” value was “not soluble”. With “WLSRSERYIPMMREVLRKEGLPEDLVYLAMIESGFTPHAVSVASAVGPWQFISGTGKRYDLRIDQWIDERRDPLKSTVAAAMYLKELYSLFNQDWYLAAAGYNAGENKILRAIDKYNTRDFWEISKGSYLKRETKDYVPKLLAAAIIAKEPARYGFADVAYLPPIEFD” the “soluble on expression in E. coli” value was “not soluble”. For “SLSFTLEEEDITGTWYVKAMVVDKDFPEDRRPRKVSPVKVTALGGGNLEATFTFMREDRCIQKKILMRKTEEPGKFSAYGGRKLIYLQELPGTDDYVFYCKDQRRGGLRYMGKLVGRNPNTNLEALEEFKKLVQHKGLSEEDIFMPLQTGSCVLEH”, the “soluble on expression in E. coli” value was “soluble”. In the case of “MYDYSILPNRIILCVDLRSFYASVSCIKMGLDPMHTKLAVVGDVNRNGSIVLAATPPLKALGVKKMARLYEIPRRKDILVVNPIMSTYIKCSNYITKLALQYVPIEDFHQYSIDEFFMDITDSIHLFAQDPYEFAMKFKREIYDHTRIECTIGIAPNPLMSKVALDIEAKKNKDGIAFWQYEDIPTKLWSIRPLNKFWGISYKTEEKLNRKGIYSIGDLANYPLKYLKQSFGKIGEELHLHSHGIDFSRISEKYVPATTSIGKSQILMRDYTIEEFPIILLEHIEEVCYRLRRQTKLAQTIHFSVGYSKSYTGGIRKTHTLNRPTNLTMDIYHICTYFLHQQYTGEPIRSINISLTNLIQEGEEQISLFDNVTKREQEMKLTKVMDEIRTKFGKNSILRGISYTHSATARHRNTLIGLEHHHHHH”, the “soluble on expression in E. coli” value is reported as “not soluble”. For “MGSDKIHHHHHHMPKSKSQKNKLRPRDSKGRFTPLAKAKRTVVSRSRSRSRSASRGARQSRSVGRPMSRRNSVRSISTHTAKSPSLVLVISGSPSPRRRRPSTRRSSSRRSVVRSVSRGSKSRRSSSRGSVYGRTGRSRSSKRSRSRSRPRTRSGSRSSSRSRSGSRRSSRRRSRRRSSSKARGRRASTAKKTPAKRRSRSRSQQKVKRSMSRKG”, the “soluble on expression in E. coli” value was “not soluble”. In the case of “MSRTYDLASDVIRRVYERRIDAPAILDSASEFPNAAKFTNAWRDIRDEALGVHLGKVPRFHDIMPEQADISANDGLDWRMFVLKAYDMAVPENLARMPVLSRLLAECPEVKSAAISFLAPRKHIPSHRGPFRGIMRFHLGLVIPRQADGRPATIMMIDHQEKRITDGEGMLWDDTYPHEVMNNADETRIALLLDVWRPGMPWDMEMLSRLIVRGVQAGMRRRGVSFSGLEHHHHHH”, the “soluble on expression in E. coli” value is reported as “soluble”. With “GVSTAVAQDFTIAAKHAIAVEANTGKILYEKDATQPVEIASITKLITVYLVYEALENGSITLSTPVDISDYPYQLTTNSEASNIPMEARNYTVEELLEATLVSSANSAAIALAEKIAGSEKDFVDMMRAKLLEWGIQDATVVNTTGLNNETLGDNIYPGSKKDEENKLSAYDVAIVARNLIKKYPQVLEITKKPSSTFAGMTITSTNYMLEGMPAYRGGFDGLKTGTTDKAGESFVGTTVEKGMRVITVVLNADHQDNNPYARFTATSSLMDYISSTFTLRKIVQQGDAYQDSKAPVQDGKEDTVIAVAPEDIYLIERVGNQSSQSVQFTPDSKAIPAPLEAGTVVGHLTYEDKDLIGQGYITTERPSFEMVADKKIEK” the “soluble on expression in E. coli” value was “soluble”. For “MDIAKWVEHARTCYSTQLDTKIKVIGVIGKDYPDHGKGDNINCYLRENVFPVAATEDETCTIRGHFSEDDQILFLVMNGVDDVANIRKCLKSNPKSNYFDAMAESECQQIRMLHFLFISCHFIIIFEQTSRIDLELMRFLKKVNSARIQLRKKINQRLVASDLRDVSFNNRILSSAESEGRMVVPRLLIAFQRNNIRPDVNPGKKRELYEKLEKNLDNQFSDILKLYDLIDCGASSLCQLNETIPVVHLLNPKIVKRDIIGEMFEILMADAENTKISGNAGTLPSNNSFVKFLEDNFRSEKNEISLENVIELMNCLQCVLDGDLEEKHEKTAIQTFIKRIQNDHMEEARRLYTNAQRPGERRGADRFKDSEKPVKIRSKEEHLMRVEKPKKFCIFISFQNVLQFNEATHYIDSVVGVNSREALSQLQAQCNEMWQSDMRACESVSMMGRSCVRKIHPTFGDQTAPEHRWTAHDASNTMISTCVCGRKQLIRPEPFSVKEANSDFYDHPDFKCCRRLWRYQFQLYQEDSEEKDDIMWADRESNSLRAAKKMAQREDELAEEDTDLDIPESLLDPDSTSPSDEDDVRVRTMSSSESSSQESDAYLRPTSRRDESMASKTERELTIDHVKRMQKLELAGKSEDFLITVPNSMTTGKLPIFPSWHLTSLGDSSIYSHGAGLKNQPNFKIGGDYLSPVVVLLDVNFDVWNRDLNKIRSEDFSRKCGKDNKDDSARVKLFVGFEYECSRGHRFFVDYNGEPLIYSKGSNVIRESAHRSSLGNVLQADLPIRRPCTCRKLPLQSAQLQKVHVVTPKAPVHITIDPKVLIPTHEGVYGTGQEPLELHHSKYYILHLPTVYSGPSGAWMPGEFNPEKQGVWMGGALKVAYKPVMSFKW”, the “soluble on expression in E. coli” value was “not soluble”.

From the DeepSol protein solubility set
